± gives the standard deviation of the averaged measurements.
Columns and labels:
[1] = test system: Saccharomyces cerevisiae; test: protein stability index of tFT-peptide fusion (C-terminal peptide) (PSI (0-1 scale)); higher = more stable (slower turnover); conditions: genetic background: wild type; temperature: 30 C
[2] = test system: Saccharomyces cerevisiae; test: as above
Procedure: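 MPS profiling in S. cerevisiae of the tFT-X12 degron library: putative degron peptides plus stable controls, 12 aa, fused to the C-terminus of a sfGFP-mCherry timer. Cells are FACS-sorted into 8 mCherry/sfGFP bins and deep-sequenced. PSI runs from 0 (unstable) to 1 (stable). Backgrounds are wild type, das1Δ and doa10Δ at 30 °C, and wild type, das1Δ, cdc34-1 and cdc53-1 at 37 °C; 2-3 technical replicates each.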

[3] = genetic background: cdc34-1, temperature: 37 C
[4] = genetic background: cdc53-1, temperature: 37 C
[5] = genetic background: das1 deletion, temperature: 30 C
[6] = genetic background: das1 deletion, temperature: 37 C
[7] = genetic background: doa10 deletion, temperature: 30 C
[8] = genetic background: wild type, temperature: 30 C
[9] = genetic background: wild type, temperature: 37 C
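Note: PSI is a weighted mean of sequencing reads over stability bins, variants kept only with over 10 reads, mCherry proximal and sfGFP distal, peptide attached via GGGS linker.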

Sequence	protein stability index [1]	protein stability index [2, 3]	protein stability index [2, 4]	protein stability index [2, 5]	protein stability index [2, 6]	protein stability index [2, 7]	protein stability index [2, 8]	protein stability index [2, 9]
PTFSPSLPPPRS	0.3693 ± 0.0019	0.632 ± 0.03	0.715 ± 0.012	0.678 ± 0.027	0.703 ± 0.02	0.712 ± 0.027	0.694 ± 0.022	0.67608 ± 0.00018
PVTAVYFVLYIW	0.251 ± 0.03	0.134 ± 0.0025	0.231 ± 0.017	0.177 ± 0.032	0.332 ± 0.019	0.143 ± 0.01	0.167 ± 0.026	0.298 ± 0.035
PYLSAPLVATLS	0.3853 ± 0.0035	0.378 ± 0.014	0.424 ± 0.025	0.274 ± 0.057	0.474 ± 0.0082	0.234 ± 0.012	0.28 ± 0.045	0.426 ± 0.0049
QDQWINTSLELS	0.751 ± 0.056	0.677 ± 0.018	0.759 ± 0.0081	0.676 ± 0.039	0.7465 ± 0.0027	0.685 ± 0.015	0.68 ± 0.035	0.711 ± 0.024
QLIDVGLLNCAA	0.498 ± 0.079	0.499 ± 0.044	0.557 ± 0.033	0.435 ± 0.03	0.611 ± 0.052	0.412 ± 0.011	0.45 ± 0.027	0.5616 ± 0.0023
QWTVRNQGVMQR	0.73 ± 0.017	0.699 ± 0.018	0.743 ± 0.0096	0.652 ± 0.012	0.754 ± 0.016	0.65 ± 0.036	0.681 ± 0.051	0.721 ± 0.026
QYRLMQKKIVNI	0.229 ± 0.059	0.644 ± 0.022	0.743 ± 0.048	0.647 ± 0.015	0.718 ± 0.014	0.119 ± 0.013	0.147 ± 0.024	0.253 ± 0.015
RAEASFFLPKVG	0.435 ± 0.07	0.675 ± 0.046	0.711 ± 0.0076	0.668 ± 0.033	0.732 ± 0.016	0.41 ± 0.013	0.446 ± 0.01	0.6398 ± 0.0037
RAQQRVKERYIE	0.432 ± 0.0045	0.74 ± 0.046	0.729 ± 0.014	0.669 ± 0.022	0.7311 ± 0.0059	0.517 ± 0.058	0.581 ± 0.067	0.69 ± 0.0077
RCIRRWPYILKL	0.273 ± 0.019	0.576 ± 0.017	0.667 ± 0.0087	0.615 ± 0.038	0.758 ± 0.059	0.214 ± 0.0092	0.206 ± 0.042	0.285 ± 0.031

From the supplement of paper PMC10724198
